Assay results published in PMC3017645 (Journal of molecular biology, 2010).

T1: Nnf1p-6xHis (budding yeast (S. cerevisiae), UniProt P47149 1-201)
T1 sequence (looked up): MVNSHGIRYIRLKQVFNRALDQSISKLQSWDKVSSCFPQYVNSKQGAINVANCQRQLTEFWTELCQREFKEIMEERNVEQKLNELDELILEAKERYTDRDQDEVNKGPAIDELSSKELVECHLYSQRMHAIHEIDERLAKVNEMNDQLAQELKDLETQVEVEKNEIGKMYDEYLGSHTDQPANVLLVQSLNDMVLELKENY

B1: Mtw1p (natural protein, budding yeast (S. cerevisiae), UniProt P39731 1-289, looked up)
chain: MSAPTMRSTSILTEHLGYPPISLVDDIINAVNEIMYKCTAAMEKYLLSKSKIGEEDYGEEIKSGVAKLESLLENSVDKNFDKLELYVLRNVLRIPEEYLDANVFRLENQKDLVIVDENELKKSEEKLREKVNDVELAFKKNEMLLKRVTKVKRLLFTIRGFKQKLNELLKCKDDVQLQKILESLKPIDDTMTLLTDSLRKLYVDSESTSSTEEVEALLQRLKTNGKQNNKDFRTRYIDIRTNNVLRKLGLLGDKEDEKQSAKPDARTQAGDIVSIDIEEPQLDLLDDVL
B2: Nsl1p (natural protein, budding yeast (S. cerevisiae), UniProt Q12143 1-216, looked up)
chain: MSQGQSKKLDVTVEQLRSIYHQFHDILEEKTDLHLPKKEYDDDAVRREVQIQLQEFLLSAMTMASKSLEVVNADTVGKTVKQLIMESQEKYMEPFDLDLNEQVRKMYQEWEDETVKVAQLRQTGPAKINEVYNNSKDEYLAQLDGRIGVLQARMMQQQSADHDDSTDDADDHINWEHIKQDYVASLNELYQTQQDLPKVRYNVEKVKRLMDFLEED
B3: Dsn1p (natural protein, budding yeast (S. cerevisiae), UniProt P40568 1-576, looked up)
chain: MSLEPTQTVSGTPPMLHQRTHKQVYPLRMETIPILESDSKATLQSNEPTQKDEEETEYFENKQSVSNLSPDLKFKRHKNKHIQGFPTLGERLDNLQDIKKAKRVENFNSSAPIADDNHSGDATANATANATANATANVNASAMPAPYMPYYYYYHPMNAPTPAMIPYPGSPMHSIMPNSSLQPFYSQPTAAGGPDMTTPQNISSSQQLLPAPQLFPYGSFHQQQLQQPHYIQRTRERKKSIGSQRGRRLSMLASQANGGSTIISPHKDIPEEDFYTVVGNASFGKNLQIRQLFNWCLMRSLHKLELKAKNQEEEGELEHLTKKSKLESTKAETDYVDPKRLAMVIIKEFVDDLKKDHIAIDWEDEEKYEDEDEEKILDNTENYDDTELRQLFQENDDDDDDDDEVDYSEIQRSRRKFSERRKALPKEPKKLLPNSKNVENTKNLSILTSKVNAIKNEVKEWAVTLDTSRPDLEWQELTSFSSQPLEPLSDTEEPDLAIADVETKLETKVDELRYQSHILNSHSLALNEITNSKVNKLNIETMRKISSETDDDHSQVINPQQLLKGLSLSFSKKLDL

What follows are binders tested against T1, Nnf1p-6xHis (assay: co-purification of co-expressed subunits).

Row | stoichiometry N | Binder
1 | 1 | B1
2 | 1 | B2
3 | 1 | B3
